From US20080206230A1 (INSTITUT PASTEUR, published 2008)

Target: T1, rat NEP ecto-endopeptidase (renal tissue) (rat, UniProt P07861 2-750)
T1 sequence (looked up): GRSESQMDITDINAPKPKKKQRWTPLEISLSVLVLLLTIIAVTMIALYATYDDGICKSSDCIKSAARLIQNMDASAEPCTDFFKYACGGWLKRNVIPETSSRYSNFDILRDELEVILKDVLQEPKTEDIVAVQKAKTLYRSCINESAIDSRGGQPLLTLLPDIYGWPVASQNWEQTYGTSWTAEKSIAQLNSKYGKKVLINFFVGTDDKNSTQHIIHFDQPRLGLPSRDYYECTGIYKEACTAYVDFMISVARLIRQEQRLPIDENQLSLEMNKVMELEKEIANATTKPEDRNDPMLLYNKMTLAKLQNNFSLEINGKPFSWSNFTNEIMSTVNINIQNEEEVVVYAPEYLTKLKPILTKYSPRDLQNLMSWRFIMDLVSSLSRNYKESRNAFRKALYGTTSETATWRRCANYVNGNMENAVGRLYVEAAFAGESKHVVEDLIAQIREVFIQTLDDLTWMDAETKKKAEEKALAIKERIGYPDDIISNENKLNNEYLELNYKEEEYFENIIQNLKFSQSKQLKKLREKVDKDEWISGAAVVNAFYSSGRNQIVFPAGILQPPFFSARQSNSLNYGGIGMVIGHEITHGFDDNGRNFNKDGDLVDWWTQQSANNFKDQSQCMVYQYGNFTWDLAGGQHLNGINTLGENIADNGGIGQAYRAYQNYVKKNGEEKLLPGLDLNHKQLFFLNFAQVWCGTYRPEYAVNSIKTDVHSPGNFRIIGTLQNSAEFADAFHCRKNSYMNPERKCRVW
Test: cell-based or functional assay

QRFSR [QRFSR peptide] was tested, and the “inhibitory efficiency towards rat renal NEP relative to human cell surface NEP (LNCaP)” value was ≥ 10 fold lower.
